Test results reported in patent publication US20120039908A1.

Target: T1, S100b protein (Cat. No. 559290, Calbiochem)
T1 sequence (P04271 2-92, species assumed, looked up): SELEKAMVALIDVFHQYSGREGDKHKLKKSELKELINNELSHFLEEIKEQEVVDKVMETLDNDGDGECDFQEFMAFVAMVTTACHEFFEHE
Test: ELISA, S100b coated on plate; reference baseline bioreactor R39

Sequence of RAGE-Fc fusion protein from bioreactor R79 (Ex Cell 325 PF CHO, 2-deoxy-D-glucose 1 g/L at day 7; 9), Day 12 (chain): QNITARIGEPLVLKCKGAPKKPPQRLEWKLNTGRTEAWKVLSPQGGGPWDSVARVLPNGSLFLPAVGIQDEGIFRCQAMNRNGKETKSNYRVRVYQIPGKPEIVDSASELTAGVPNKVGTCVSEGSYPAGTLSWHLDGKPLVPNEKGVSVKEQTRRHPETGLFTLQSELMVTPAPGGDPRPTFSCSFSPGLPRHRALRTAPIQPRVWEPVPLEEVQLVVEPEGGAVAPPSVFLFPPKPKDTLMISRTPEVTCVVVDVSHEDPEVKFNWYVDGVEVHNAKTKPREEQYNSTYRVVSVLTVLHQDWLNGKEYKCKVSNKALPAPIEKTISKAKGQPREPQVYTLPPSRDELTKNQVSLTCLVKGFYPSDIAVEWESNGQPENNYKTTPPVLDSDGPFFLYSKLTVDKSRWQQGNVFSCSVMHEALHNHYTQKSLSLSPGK
Sequence of RAGE-Fc fusion protein from bioreactor R66 (CD OptiCHO lipid-free, 2-deoxy-D-glucose 1 g/L at day 9), Day 12 (chain): as above
Sequence of RAGE-Fc fusion protein from bioreactor R80 (CD CHO, 2-deoxy-D-glucose 1 g/L at day 7; 9), Day 14 (chain): as above
Sequence of RAGE-Fc fusion protein from bioreactor R39 (control, no 2-deoxy-D-glucose), Day 12 (chain): as above
Sequence of RAGE-Fc fusion protein from bioreactor R79 (Ex Cell 325 PF CHO, 2-deoxy-D-glucose 1 g/L at day 7; 9), Day 13 (chain): as above
Sequence of RAGE-Fc fusion protein from bioreactor R53 (2-deoxy-D-glucose 1 g/L at day 9; 11), Day 10 (chain): as above
Sequence of RAGE-Fc fusion protein from bioreactor R53 (2-deoxy-D-glucose 1 g/L at day 9; 11), Day 12 (chain): as above
Sequence of RAGE-Fc fusion protein from bioreactor R66 (CD OptiCHO lipid-free, 2-deoxy-D-glucose 1 g/L at day 9), Day 14 (chain): as above
Sequence of RAGE-Fc fusion protein from bioreactor R80 (CD CHO, 2-deoxy-D-glucose 1 g/L at day 7; 9), Day 12 (chain): as above

Substance	Relative binding compared to control [%]	fold increase in S100b binding activity compared to baseline bioreactor R39 [fold]	fold S100b binding activity compared to control bioreactor R39 [fold]
RAGE-Fc fusion protein from bioreactor R39 (control, no 2-deoxy-D-glucose), Day 12	100	–	–
RAGE-Fc fusion protein from bioreactor R53 (2-deoxy-D-glucose 1 g/L at day 9; 11), Day 10	296	–	–
RAGE-Fc fusion protein from bioreactor R53 (2-deoxy-D-glucose 1 g/L at day 9; 11), Day 12	1520	–	–
RAGE-Fc fusion protein from bioreactor R66 (CD OptiCHO lipid-free, 2-deoxy-D-glucose 1 g/L at day 9), Day 12	3250	32	–
RAGE-Fc fusion protein from bioreactor R66 (CD OptiCHO lipid-free, 2-deoxy-D-glucose 1 g/L at day 9), Day 14	3520	–	–
RAGE-Fc fusion protein from bioreactor R79 (Ex Cell 325 PF CHO, 2-deoxy-D-glucose 1 g/L at day 7; 9), Day 12	527	5	–
RAGE-Fc fusion protein from bioreactor R79 (Ex Cell 325 PF CHO, 2-deoxy-D-glucose 1 g/L at day 7; 9), Day 13	2960	–	–
RAGE-Fc fusion protein from bioreactor R80 (CD CHO, 2-deoxy-D-glucose 1 g/L at day 7; 9), Day 12	1630	–	–
RAGE-Fc fusion protein from bioreactor R80 (CD CHO, 2-deoxy-D-glucose 1 g/L at day 7; 9), Day 14	8080	–	80
